Patent US20200141935A1, “SYSTEM, METHOD, APPARATUS AND DIAGNOSTIC TEST FOR PREGNANCY” (BARCELONA INSTITUTE FOR GLOBAL HEALTH, priority 2017, published 2020)

Tests used:
IgG [1] = experiment: Multiplex bead-based immunoassay: seroprevalence (finite mixture models or negative control cutoff); assay type: binding, pregnant women; details: for Seroprevalence MQ (%): IPTp with mefloquine; for M (OR) / Seroprevalence M (%): Mozambique; for Seroprevalence A (%) / A (OR): anemia; for A (OR): Non-A as reference; for Seroprevalence Non-A (%): non anemia
Description: (§1) Two multiplex suspension array panels were constructed to quantify IgG responses against P. falciparum recombinant proteins and synthetic peptides, using the xMAP™ technology and the Luminex® 100/200™ System (Luminex® Corp., Austin, Tex.). MagPlex® microspheres (magnetic carboxylated polystyrene microparticles, 5.6 μm) with different spectral signatures were selected for each protein (DBL3X, DBL5ϵ, DBL6ϵ, AMA1 and MSP119), peptides (25 VAR2CSA peptides and pCSP), tetanus toxin and bovine serum albumin (BSA). Antigens were covalently coupled to beads following a modification of the Luminex® Corporation protocol. Protein and peptide multiplex arrays were prepared by pooling together equal volumes of coated beads. Plasma samples or the product of DBS elution were analyzed in duplicate at dilution 1:400 for the protein array and 1:100 for the peptide array. A hyperimmune plasma pool composed by 23 plasmas from malaria infected Mozambican pregnant women (HIP-VAR2CSA) was included in each assay plate, in addition to blanks (wells without sample) to assess background levels. A minimum of 50 microspheres were read per spectral signature and results were exported as crude median fluorescent intensity ([…]). Duplicates were averaged and background MFIs were subtracted. A total of 224 plates were analyzed and the intra-assay variation (mean CV of replicates from 20 plasma samples per plate) ranged from 1.4% to 7.3% for the protein array and from 2.5% to 12.4% for the peptide array. The inter-assay variation (variability of positive pool [HIP-VAR2CSA] between 224 plates) was 5% for the protein array and 26% for the peptide array. Results were normalized (nMFI) to account for plate-to-plate variation by […] the background subtracted MFI of each sample with the value of the positive pool in the same plate and dividing by the median of positive pools in all plates.
(§2) Antibodies were eluted from DBS from Gabon, […] and Kenya, as previously described. Briefly, to achieve a concentration of eluted blood proteins equivalent to a 1:50 plasma dilution antibodies were eluted from four spots of approximately 3 mm in diameter with 200 μl Luminex® assay buffer (1% BSA, 0.05% sodium azide in filtrated PBS [Phosphate-buffered saline]). […]. Controls blood drops were artificially prepared using fresh erythrocytes (blood type 0, assuming a hematocrit approximately of 50%) and freeze plasma from 49 Spanish pregnant women. Filter papers were stored avoiding humidity at −20° C. in Barcelona.
(§3) Presence or absence of antibodies was defined by finite mixture models (FMM) for pregnancy-specific antigens (VAR2CSA peptides and recombinant domains) and by the mean plus 3 standard deviation (SD) of IgG response from pregnant women from Barcelona for general malaria antigens (AMA1, MSP119, and pCSP).
(§4) Data was fitted to a normal distribution by logarithmic transformation of nMFIs. Participant's baseline characteristics and parasitological outcomes were compared between study times and areas by univariate analysis (Fisher's tests for binary outcomes or t-Student test for continuous outcomes). Responses were considered not restricted to malaria when seroprevalences were 5% or high among Spanish pregnant women.
Seroprevalences between countries (Benin, Gabon and Mozambique for HIV-uninfected and Kenya and Mozambique for HIV-infected), between IPTp intervention group (MQ vs SP for HIV-uninfected and MQ vs Placebo for HIV infected) and anemia status were compared by logistic regression models adjusted by parity, age and treatment.
The modification of the associations by HIV infection or parity was assessed by including interaction terms into the regression models.

IgG [2] = experiment: Multiplex bead-based immunoassay (Luminex): IgG levels (nMFI) against antigens, compared between groups; assay type: binding, pregnant women
Description: as §1, §2, §3, §4
Linear regression models were used to compare antibody levels from Mozambican and Spanish pregnant women. The capacity of antibody levels to mimic malaria trends in Mozambique was analyzed by linear regression models (2010 was compared with 2003-2005 corresponding to a trend of malaria decrease and 2011-2012 with 2010 to a trend of increase) adjusted by treatment, parity, age and HIV.
The impact of P. falciparum infection during pregnancy on antibodies at delivery was assessed in linear regression models adjusted by age, parity, HIV and treatment. Changes in antibody levels due to parasite density (below or above 200) were assessed by linear regression models adjusted by age, parity, HIV and treatment. […]

IgG [3] = experiment: Antibody dynamics during pregnancy (time to double, half-life, sero-reversion) from bead-based immunoassay; assay type: binding, pregnant Mozambican women
Description: as §1
The adjusted effect of infection on antibody levels was analyzed using log-linear mixed-effects regression models incorporating Gaussian random intercepts. […] Time to double the antibody levels (T2x) and half-lives were calculated in weeks from the estimated rates and the boundaries at 95% confidence interval obtained from mixed-effects models for subjects suffering a P. falciparum infection at follow-up independent of antibody status at recruitment (Ab[−or+]/Pf+) and subjects seropositive at recruitment and no infection detected on follow-up (Ab+/Pf−), respectively. In situations that the increase rate is a negative value (rate below 1) or the decay rate is a positive value (rate above 1), the calculated T2x or half-life was reported as infinity. Similarly, the time to sero-reversion was calculated for these subjects using the ratio of the seropositivity cutoff by the average antibody titers at recruitment as decay, i.e. how many times the average titers need to be reduced to be equal the cutoff.

[4] = nMFI ratio at delivery, Mozambique, adjusted by parity, age, treatment and HIV

B1: MSP119: recombinant merozoite surface protein-1, 19-kDa, from 3D7 strain (protein)
chain: NISQHQCVKKQCPENSGCFRHLDEREECKCLLNYKQEGDKCVENPNPTCNENNGGCDADATCTEEDSGSSRKKITCECTKPDSYPLFDGIFCS
SeroPrev Delivery % (IgG [1]; 239 pregnant Mozambican women followed 2011-2012): 89%
Seroprevalence MQ (%) (IgG [1]; HIV infected): 85%
Seroprevalence K (%) (IgG [1]; HIV infected, Kenya, at delivery): 88%
MQ (OR) (IgG [1]; HIV infected, MQ, Placebo as reference): 0.84 (0.54; 1.32)
M (OR) (IgG [1]; HIV infected, Kenya as reference): 0.73 (0.46; 1.16)
Seroprevalence M (%) (IgG [1]; HIV infected, at delivery): 85%
Seroprevalence PL (%) (IgG [1]; HIV infected, Placebo group): 87%
Seroprevalence A (%) (IgG [1]; HIV infected): 85%
A (OR) (IgG [1]; HIV infected): 0.90 (0.56; 1.45)
Seroprevalence Non-A (%) (IgG [1]; HIV infected): 87%
Seroprevalence B (%) (IgG [1]; HIV uninfected, Benin, at delivery): 99%
G (OR) (IgG [1]; HIV uninfected, Gabon, Benin as reference): 0.08 (0.04; 0.18)
Seroprevalence G (%) (IgG [1]; HIV uninfected, Gabon, at delivery): 84%
Seroprevalence MQ (%) (IgG [1]; HIV uninfected): 94%
Seroprevalence SP (%) (IgG [1]; HIV uninfected, IPTp with sulfadoxine-pyrimethamine): 94%
M (OR) (IgG [1]; HIV uninfected, Benin as reference): 0.13 (0.07; 0.26)
Seroprevalence M (%) (IgG [1]; HIV uninfected, at delivery): 89%
SP (OR) (IgG [1]; HIV uninfected, SP, MQ as reference): 1.02 (0.63; 1.66)
Seroprevalence A (%) (IgG [1]; HIV uninfected): 94%
A (OR) (IgG [1]; HIV uninfected): 0.95 (0.60; 1.51)
Seroprevalence Non-A (%) (IgG [1]; HIV uninfected): 95%
Seroprevalence in Tanzania (IgG [1]; HIV-uninfected women, area of Tanzania where no malaria infection was observed): 48%
Seroprevalence in 2003-2005 (IgG [1]; Mozambican pregnant women at delivery, 2003-2005 pooled): 94%
Seroprevalence 2003/4 (%) (IgG [1]; Mozambican pregnant women at delivery, 2003/4): 90%
Seroprevalence 2005 (%) (IgG [1]; Mozambican pregnant women at delivery, 2005): 99%
Seroprevalence 2010 (%) (IgG [1]; Mozambican pregnant women at delivery, 2010): 94%
Seroprevalence 2011 (%) (IgG [1]; Mozambican pregnant women at delivery, 2011): 84%
Seroprevalence in 2011-2012 (IgG [1]; Mozambican pregnant women at delivery, 2011-2012 pooled): 87%
Seroprevalence 2012 (%) (IgG [1]; Mozambican pregnant women at delivery, 2012): 90%
SeroPrev PW Bcn (%) (IgG [1]; seroprevalence among pregnant Spanish women never exposed to malaria): 4%
Decrease (OR) (IgG [1]; seroprevalence odds ratio 2010 vs 2003/5, Mozambique, adjusted): 0.81 (0.31; 2.14)
Increase (OR) (IgG [1]; seroprevalence odds ratio 2011/12 vs 2010, Mozambique, adjusted): 0.37 (0.19; 0.74)
Immunoreactivity: recognition by IgGs at levels above BSA recognition (IgG [2]; 641 pregnant Mozambican women 2003-2012, mean nMFI above mean BSA nMFI plus 3 SD): above BSA recognition
Infection during pregnacy Infection vs no-infection ratio (95% CI) (IgG [2]; nMFI at delivery, Mozambican women followed 2011-2012, adjusted): 3.69 (1.83; 7.46)
Parity MG vs PG ratio (95% CI) (IgG [2]; nMFI at delivery, multigravid vs primigravid Mozambican women, adjusted): 1.6 (0.6; 4.29)
Exposure dependence Decrease 2010 vs 2003-2005 Ratio (95% CI) (IgG [2]; [4]): 0.43 (0.28; 0.65)
Exposure dependence Increase 2011-2012 vs 2010 Ratio (95% CI) (IgG [2]; [4]): 0.88 (0.60; 1.30)
PW Mz vs PW Bcn Ratio (95% CI) (IgG [2]; nMFI ratio, pregnant Mozambican women vs pregnant Spanish women (N=49)): 85.07 (46.72; 154.9)
Parasite density Low vs High ratio (95% CI) (IgG [2]; nMFI ratio, below or above 200 genomes per microliter, adjusted): 2.55 (0.98; 6.63)
Antibody dynamics Sero-revertion weeks (95% CI) (IgG [3]; time to sero-negativisation, seropositive at recruitment, no infection on follow-up): 385.42 (207.36; 2728.50) weeks
Antibody dynamics Time to double weeks (95% CI) (IgG [3]; women with P. falciparum infection on follow-up, log-linear mixed-effects model): 31.69 (15.65; ∞) weeks
